{"source": "the Human Domainome abundance scans (Beltran et al. 2025)", "parents": {"B1": {"name": "Protein C-ets-1, residues 55 to 135; numbered along this chain, P14921 (parent)", "chain": "GFTKEQQRLGIPKDPRQWTETHVRDWVMWAVNEFSLKGVDFQKFCMNGAALCALGKDCFLELAPDFVGDILWEHLEILQKE"}}, "note": "± gives the uncertainty stated by the source.", "data": [{"variants_of": "B1", "assay": "abundance fitness (aPCA) (normalised: wild type 0, dead -1); higher = more abundant; growth selection in yeast, the domain comes from the species named", "settings": "Homo sapiens", "values": [{"variant": "Q42W", "abundance fitness": "-0.681 ± 0.064"}, {"variant": "T19E", "abundance fitness": "-0.155 ± 0.064"}, {"variant": "L75D", "abundance fitness": "-0.91 ± 0.2"}, {"variant": "D65P", "abundance fitness": "0.076 ± 0.039"}, {"variant": "A30F", "abundance fitness": "-0.187 ± 0.086"}, {"variant": "V27C", "abundance fitness": "-0.18 ± 0.044"}, {"variant": "R24A", "abundance fitness": "-0.087 ± 0.046"}, {"variant": "P15L", "abundance fitness": "-0.281 ± 0.045"}, {"variant": "V39T", "abundance fitness": "-0.387 ± 0.061"}, {"variant": "L54E", "abundance fitness": "-0.614 ± 0.051"}, {"variant": "V27E", "abundance fitness": "-1 ± 0.11"}, {"variant": "G1W", "abundance fitness": "-0.248 ± 0.083"}, {"variant": "M28I", "abundance fitness": "0.006 ± 0.073"}, {"variant": "K37F", "abundance fitness": "-0.199 ± 0.06"}, {"variant": "V67Q", "abundance fitness": "-0.069 ± 0.051"}, {"variant": "E20K", "abundance fitness": "-0.036 ± 0.063"}, {"variant": "R24L", "abundance fitness": "-0.05 ± 0.034"}, {"variant": "V31N", "abundance fitness": "-0.401 ± 0.067"}, {"variant": "D14Q", "abundance fitness": "-0.356 ± 0.045"}, {"variant": "F66P", "abundance fitness": "0.048 ± 0.044"}, {"variant": "L71M", "abundance fitness": "-0.176 ± 0.055"}, {"variant": "A30M", "abundance fitness": "-0.008 ± 0.055"}, {"variant": "Q7S", "abundance fitness": "-0.069 ± 0.039"}, {"variant": "L51C", "abundance fitness": "-0.803 ± 0.12"}, {"variant": "C58H", "abundance fitness": "0.039 ± 0.056"}, {"variant": "L62D", "abundance fitness": "-0.968 ± 0.22"}, {"variant": "E5C", "abundance fitness": "-0.129 ± 0.077"}, {"variant": "Q17M", "abundance fitness": "0.014 ± 0.06"}, {"variant": "E76G", "abundance fitness": "-0.036 ± 0.033"}, {"variant": "M46E", "abundance fitness": "-0.991 ± 0.13"}, {"variant": "F41D", "abundance fitness": "-0.053 ± 0.037"}, {"variant": "Q42A", "abundance fitness": "-0.071 ± 0.035"}, {"variant": "F66H", "abundance fitness": "0.095 ± 0.048"}, {"variant": "P15H", "abundance fitness": "-0.791 ± 0.36"}, {"variant": "L9W", "abundance fitness": "-0.192 ± 0.043"}, {"variant": "W29C", "abundance fitness": "-0.364 ± 0.061"}, {"variant": "D14L", "abundance fitness": "-0.552 ± 0.033"}, {"variant": "W72Y", "abundance fitness": "0.11 ± 0.075"}, {"variant": "G1C", "abundance fitness": "-0.21 ± 0.11"}, {"variant": "K37W", "abundance fitness": "-0.213 ± 0.037"}, {"variant": "L54N", "abundance fitness": "-0.302 ± 0.059"}, {"variant": "Q6L", "abundance fitness": "-0.006 ± 0.043"}, {"variant": "H22R", "abundance fitness": "-0.818 ± 0.061"}, {"variant": "R24D", "abundance fitness": "-0.827 ± 0.13"}, {"variant": "E61F", "abundance fitness": "-0.772 ± 0.17"}, {"variant": "L54V", "abundance fitness": "-0.254 ± 0.032"}, {"variant": "C58I", "abundance fitness": "-0.094 ± 0.073"}, {"variant": "L78Q", "abundance fitness": "-0.199 ± 0.053"}, {"variant": "E20F", "abundance fitness": "-0.396 ± 0.05"}, {"variant": "G55D", "abundance fitness": "0.061 ± 0.053"}, {"variant": "P15D", "abundance fitness": "-1.15 ± 0.45"}, {"variant": "Q6P", "abundance fitness": "-0.389 ± 0.062"}, {"variant": "H22V", "abundance fitness": "-0.673 ± 0.054"}, {"variant": "G10E", "abundance fitness": "-0.067 ± 0.045"}, {"variant": "L75G", "abundance fitness": "-0.935 ± 0.073"}, {"variant": "V27N", "abundance fitness": "-0.796 ± 0.16"}, {"variant": "E33I", "abundance fitness": "-0.498 ± 0.1"}, {"variant": "G48N", "abundance fitness": "-0.758 ± 0.2"}, {"variant": "N47P", "abundance fitness": "0.014 ± 0.044"}, {"variant": "I11N", "abundance fitness": "-0.288 ± 0.074"}, {"variant": "D25V", "abundance fitness": "-0.061 ± 0.026"}, {"variant": "F66M", "abundance fitness": "-0.032 ± 0.048"}, {"variant": "W72L", "abundance fitness": "-0.316 ± 0.033"}, {"variant": "C45E", "abundance fitness": "0.022 ± 0.053"}, {"variant": "K13P", "abundance fitness": "0.023 ± 0.057"}, {"variant": "G55L", "abundance fitness": "-0.791 ± 0.054"}, {"variant": "G10A", "abundance fitness": "-0.057 ± 0.04"}, {"variant": "G10D", "abundance fitness": "0.015 ± 0.058"}, {"variant": "L60N", "abundance fitness": "-0.117 ± 0.093"}, {"variant": "L78F", "abundance fitness": "-0.39 ± 0.06"}, {"variant": "E33S", "abundance fitness": "-0.117 ± 0.03"}, {"variant": "V27I", "abundance fitness": "-0.003 ± 0.055"}, {"variant": "S35G", "abundance fitness": "0.012 ± 0.027"}, {"variant": "L51E", "abundance fitness": "-0.952 ± 0.093"}, {"variant": "R24N", "abundance fitness": "-0.062 ± 0.11"}, {"variant": "R16F", "abundance fitness": "-0.024 ± 0.066"}, {"variant": "F41Q", "abundance fitness": "-0.134 ± 0.066"}, {"variant": "L54H", "abundance fitness": "-0.598 ± 0.078"}, {"variant": "D25H", "abundance fitness": "0.041 ± 0.052"}, {"variant": "F2D", "abundance fitness": "-0.143 ± 0.09"}, {"variant": "L75V", "abundance fitness": "-0.721 ± 0.059"}, {"variant": "F2E", "abundance fitness": "-0.345 ± 0.1"}, {"variant": "N47T", "abundance fitness": "0.065 ± 0.061"}, {"variant": "E33N", "abundance fitness": "-0.078 ± 0.076"}, {"variant": "F66T", "abundance fitness": "0.037 ± 0.048"}, {"variant": "F34D", "abundance fitness": "-0.623 ± 0.068"}, {"variant": "D69F", "abundance fitness": "-0.301 ± 0.066"}, {"variant": "E73W", "abundance fitness": "-0.142 ± 0.052"}, {"variant": "V39R", "abundance fitness": "-0.749 ± 0.049"}, {"variant": "A30W", "abundance fitness": "-0.195 ± 0.039"}, {"variant": "V39F", "abundance fitness": "-0.239 ± 0.096"}, {"variant": "A63M", "abundance fitness": "-0.115 ± 0.059"}, {"variant": "V23I", "abundance fitness": "-0.438 ± 0.045"}, {"variant": "C58G", "abundance fitness": "0.049 ± 0.024"}, {"variant": "L51W", "abundance fitness": "-0.893 ± 0.084"}, {"variant": "M46R", "abundance fitness": "-0.507 ± 0.043"}, {"variant": "F34C", "abundance fitness": "-0.428 ± 0.048"}, {"variant": "K43N", "abundance fitness": "-0.049 ± 0.077"}, {"variant": "G10Y", "abundance fitness": "-0.33 ± 0.07"}, {"variant": "P15T", "abundance fitness": "-0.498 ± 0.067"}, {"variant": "N32K", "abundance fitness": "0.028 ± 0.054"}, {"variant": "N47D", "abundance fitness": "-0.007 ± 0.084"}, {"variant": "A49T", "abundance fitness": "-0.048 ± 0.028"}, {"variant": "C58N", "abundance fitness": "0.033 ± 0.055"}, {"variant": "V39D", "abundance fitness": "-0.699 ± 0.097"}, {"variant": "H22L", "abundance fitness": "-0.687 ± 0.061"}, {"variant": "D57G", "abundance fitness": "-0.083 ± 0.028"}, {"variant": "F44D", "abundance fitness": "-0.724 ± 0.18"}, {"variant": "G1M", "abundance fitness": "-0.186 ± 0.16"}, {"variant": "G38I", "abundance fitness": "-0.428 ± 0.12"}, {"variant": "R24Y", "abundance fitness": "-0.152 ± 0.088"}, {"variant": "I70T", "abundance fitness": "-0.008 ± 0.041"}, {"variant": "L78Y", "abundance fitness": "-0.463 ± 0.091"}, {"variant": "A50G", "abundance fitness": "-0.202 ± 0.029"}, {"variant": "A49R", "abundance fitness": "-0.013 ± 0.02"}, {"variant": "L36Q", "abundance fitness": "-0.624 ± 0.12"}, {"variant": "G38K", "abundance fitness": "-0.055 ± 0.082"}, {"variant": "Q17R", "abundance fitness": "-0.058 ± 0.036"}, {"variant": "W72I", "abundance fitness": "-1.06 ± 0.46"}, {"variant": "Q17V", "abundance fitness": "0.002 ± 0.036"}, {"variant": "M28K", "abundance fitness": "-0.016 ± 0.04"}, {"variant": "F59Q", "abundance fitness": "-0.836 ± 0.08"}, {"variant": "E76F", "abundance fitness": "-0.273 ± 0.078"}, {"variant": "I70S", "abundance fitness": "-0.228 ± 0.037"}, {"variant": "L60R", "abundance fitness": "-0.042 ± 0.033"}, {"variant": "F59R", "abundance fitness": "-0.496 ± 0.038"}, {"variant": "L62R", "abundance fitness": "-0.103 ± 0.031"}, {"variant": "F59K", "abundance fitness": "-0.882 ± 0.097"}, {"variant": "W29A", "abundance fitness": "-0.415 ± 0.036"}, {"variant": "R8I", "abundance fitness": "-0.17 ± 0.12"}, {"variant": "V23C", "abundance fitness": "-0.559 ± 0.08"}, {"variant": "D40M", "abundance fitness": "-0.368 ± 0.037"}, {"variant": "E76D", "abundance fitness": "-0.015 ± 0.059"}, {"variant": "I77R", "abundance fitness": "-0.025 ± 0.035"}, {"variant": "R24H", "abundance fitness": "0.051 ± 0.087"}, {"variant": "P64W", "abundance fitness": "-0.938 ± 0.12"}, {"variant": "R24W", "abundance fitness": "-0.3 ± 0.047"}, {"variant": "D40H", "abundance fitness": "-0.225 ± 0.059"}, {"variant": "G55E", "abundance fitness": "0.031 ± 0.046"}, {"variant": "I11L", "abundance fitness": "-0.013 ± 0.026"}, {"variant": "L75E", "abundance fitness": "-0.952 ± 0.14"}, {"variant": "W29S", "abundance fitness": "-0.395 ± 0.034"}, {"variant": "F44M", "abundance fitness": "-0.275 ± 0.074"}, {"variant": "P12V", "abundance fitness": "-0.763 ± 0.065"}, {"variant": "E73Q", "abundance fitness": "-0.032 ± 0.063"}, {"variant": "V67H", "abundance fitness": "-0.284 ± 0.14"}, {"variant": "G38N", "abundance fitness": "0.052 ± 0.098"}, {"variant": "A63H", "abundance fitness": "-0.096 ± 0.051"}, {"variant": "D65L", "abundance fitness": "-0.09 ± 0.033"}, {"variant": "I70A", "abundance fitness": "-0.105 ± 0.033"}, {"variant": "M46A", "abundance fitness": "-0.652 ± 0.05"}, {"variant": "D14I", "abundance fitness": "-0.76 ± 0.11"}, {"variant": "E33G", "abundance fitness": "-0.539 ± 0.03"}, {"variant": "R8L", "abundance fitness": "-0.086 ± 0.039"}, {"variant": "V23A", "abundance fitness": "-0.631 ± 0.054"}, {"variant": "L54A", "abundance fitness": "-0.338 ± 0.032"}, {"variant": "A30S", "abundance fitness": "-0.062 ± 0.029"}, {"variant": "L9P", "abundance fitness": "-0.32 ± 0.072"}, {"variant": "F34M", "abundance fitness": "-0.362 ± 0.053"}, {"variant": "E61C", "abundance fitness": "-0.202 ± 0.083"}, {"variant": "A30C", "abundance fitness": "-0.02 ± 0.059"}, {"variant": "A63C", "abundance fitness": "0.02 ± 0.055"}, {"variant": "K4F", "abundance fitness": "0.038 ± 0.12"}, {"variant": "A63T", "abundance fitness": "-0.134 ± 0.1"}, {"variant": "E20D", "abundance fitness": "-0.107 ± 0.032"}, {"variant": "T3P", "abundance fitness": "-0.177 ± 0.045"}, {"variant": "K56Y", "abundance fitness": "-0.134 ± 0.065"}]}]}
